Test results taken from patent US20150203575A1 (Genentech, published 2015).

B1: mPILRα-Fc (Fc fusion)
chain: not shown
notes: also called mouse PILRα-Fc; WT mPILRα-Fc; not shown: Fc of mouse IgG2a (PILRα-mIgG2a, called PILRα-Fc)
B2: mPILRαR133A-Fc (Fc fusion)
chain: not shown
notes: Arg mutant of mPILRα-Fc; also called mPILRα133A-Fc; variant mPILRα (R133A); not shown: Fc of mouse IgG2a (PILRα-mIgG2a, called PILRα-Fc)

Columns and labels:
PSS8 expressed on cells = molecular target: T1, PSS8 expressed on cells (human, UniProt Q16651 30-343); assay: flow cytometry, transfected 293T cells, 2 µg/ml
T1 construct: Clone of the Origene human cDNA library; also called Protease serine 8; prostasin

[1] = molecular target: T2, IL-2Ra expressed on cells (human, UniProt P01589 22-272); assay: flow cytometry, transfected 293T cells, 2 µg/ml
T2 construct: Clone of the Origene human cDNA library; also called Interleukin 2 receptor alpha
T2 sequence: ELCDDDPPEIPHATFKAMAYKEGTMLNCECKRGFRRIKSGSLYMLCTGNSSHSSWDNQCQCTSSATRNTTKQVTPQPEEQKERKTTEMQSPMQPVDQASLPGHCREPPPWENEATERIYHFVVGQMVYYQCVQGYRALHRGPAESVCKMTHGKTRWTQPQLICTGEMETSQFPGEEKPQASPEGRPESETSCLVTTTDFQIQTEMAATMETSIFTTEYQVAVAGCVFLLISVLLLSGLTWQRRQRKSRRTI

BR3 expressed on cells = molecular target: T3, BR3 expressed on cells (human, UniProt Q96RJ3 1-184); assay: flow cytometry, transfected 293T cells, 2 µg/ml
T3 construct: Clone of the Origene human cDNA library
T3 sequence: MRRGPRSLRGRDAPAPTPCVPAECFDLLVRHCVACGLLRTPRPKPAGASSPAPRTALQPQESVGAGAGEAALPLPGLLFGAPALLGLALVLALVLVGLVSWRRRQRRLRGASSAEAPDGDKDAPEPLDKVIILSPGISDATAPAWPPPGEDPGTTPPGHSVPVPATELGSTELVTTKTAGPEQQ

[2] = molecular target: T2, IL-2Ra expressed on cells; assay: flow cytometry, transfected 293T cells, 50 µg/ml
[3] = molecular target: T4, mouse CD99 expressed on 293T cells (mouse, UniProt Q8VCN6 29-175, sialylated O-glycans at Thr-45 and Thr-50 (cited as relevant for PILRα recognition)); assay: flow cytometry, transfected 293T cells, 50 µg/ml; 293T-Neo: 1.1
T4 construct: whole, on cells; also called mCD99; mCD99 transfectants
T4 sequence (looked up): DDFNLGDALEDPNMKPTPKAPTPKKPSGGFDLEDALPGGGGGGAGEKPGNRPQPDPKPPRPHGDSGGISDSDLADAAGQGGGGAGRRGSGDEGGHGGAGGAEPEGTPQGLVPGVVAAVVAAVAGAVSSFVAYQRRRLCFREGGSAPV

[4] = molecular target: T5, human NPDC1 expressed on cells (human, UniProt Q9NQX5 35-325); assay: as above
T5 construct: also called hNPDC1; hNPCD1
T5 sequence: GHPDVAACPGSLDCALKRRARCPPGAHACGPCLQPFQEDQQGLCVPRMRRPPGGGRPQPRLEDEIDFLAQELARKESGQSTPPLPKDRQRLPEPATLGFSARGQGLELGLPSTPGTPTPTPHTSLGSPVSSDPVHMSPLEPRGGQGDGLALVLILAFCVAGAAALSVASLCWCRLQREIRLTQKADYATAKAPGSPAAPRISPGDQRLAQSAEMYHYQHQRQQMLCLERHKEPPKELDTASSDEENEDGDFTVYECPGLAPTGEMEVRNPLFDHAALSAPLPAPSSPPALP

[5] = molecular target: T6, human COLEC12 expressed on cells (human, UniProt Q5KU26 1-742); assay: as above
T6 construct: also called hCOLEC12; C-terminal his tagged hCOLEC12

[6] = molecular target: T4, mouse CD99 expressed on 293T cells; assay: flow cytometry, transfected 293T cells, 2 µg/ml; 293T-Neo: 0
[7] = molecular target: T5, human NPDC1 expressed on cells; assay: as above
[8] = molecular target: T6, human COLEC12 expressed on cells; assay: as above
[9] = molecular target: T6, human COLEC12 expressed on cells; assay: flow cytometry, transfected 293T cells, 50 µg/ml
[10] = molecular target: T7, CLEC4G expressed on cells (human, UniProt Q6UXB4 1-293); assay: flow cytometry, transfected 293T cells
T7 construct: Clone of the Origene human cDNA library; also called C type lectin superfamily 4 member G
T7 sequence: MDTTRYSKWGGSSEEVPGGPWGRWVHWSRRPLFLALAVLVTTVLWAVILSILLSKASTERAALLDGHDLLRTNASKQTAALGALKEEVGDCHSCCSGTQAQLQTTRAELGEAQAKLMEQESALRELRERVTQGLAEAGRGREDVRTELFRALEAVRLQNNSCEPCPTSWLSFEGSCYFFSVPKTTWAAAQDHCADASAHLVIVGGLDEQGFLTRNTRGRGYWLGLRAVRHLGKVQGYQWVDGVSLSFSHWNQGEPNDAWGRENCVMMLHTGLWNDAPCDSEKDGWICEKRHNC

[11] = molecular target: T8, HSV1 glycoprotein B expressed on 293T cells (herpes simplex virus type 1, UniProt P10211 31-904); assay: flow cytometry, transfected 293T cells, ligand-expressing cells gated
T8 construct: whole, on cells; also called HSV-1 gB; HSV1 gB

[12] = molecular target: T4, mouse CD99 expressed on 293T cells; assay: as above
[13] = molecular target: T5, human NPDC1 expressed on cells; assay: as above
[14] = molecular target: T6, human COLEC12 expressed on cells; assay: as above

T6 sequence (Q5KU26 whole entry S522P/G606S): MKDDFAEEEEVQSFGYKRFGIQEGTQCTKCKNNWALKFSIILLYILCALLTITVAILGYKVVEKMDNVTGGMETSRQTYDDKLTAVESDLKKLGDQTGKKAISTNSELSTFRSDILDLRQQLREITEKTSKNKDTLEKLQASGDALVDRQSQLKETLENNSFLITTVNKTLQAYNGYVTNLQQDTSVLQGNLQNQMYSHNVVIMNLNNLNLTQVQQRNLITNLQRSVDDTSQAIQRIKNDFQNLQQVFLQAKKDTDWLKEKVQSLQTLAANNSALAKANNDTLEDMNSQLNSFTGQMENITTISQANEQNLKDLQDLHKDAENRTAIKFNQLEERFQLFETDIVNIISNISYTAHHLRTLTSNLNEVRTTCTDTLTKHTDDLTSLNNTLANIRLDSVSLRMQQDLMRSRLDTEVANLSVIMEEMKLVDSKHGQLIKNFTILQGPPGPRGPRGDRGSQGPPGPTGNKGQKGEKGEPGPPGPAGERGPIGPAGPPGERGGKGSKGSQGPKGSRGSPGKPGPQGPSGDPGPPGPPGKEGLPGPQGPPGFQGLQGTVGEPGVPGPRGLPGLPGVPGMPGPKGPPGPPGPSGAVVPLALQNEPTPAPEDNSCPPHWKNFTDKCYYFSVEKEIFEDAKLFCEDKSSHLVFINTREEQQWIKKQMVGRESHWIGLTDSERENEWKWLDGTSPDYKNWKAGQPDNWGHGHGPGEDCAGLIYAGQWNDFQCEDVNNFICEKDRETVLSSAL
T1 sequence (Q16651 30-343 limits assumed): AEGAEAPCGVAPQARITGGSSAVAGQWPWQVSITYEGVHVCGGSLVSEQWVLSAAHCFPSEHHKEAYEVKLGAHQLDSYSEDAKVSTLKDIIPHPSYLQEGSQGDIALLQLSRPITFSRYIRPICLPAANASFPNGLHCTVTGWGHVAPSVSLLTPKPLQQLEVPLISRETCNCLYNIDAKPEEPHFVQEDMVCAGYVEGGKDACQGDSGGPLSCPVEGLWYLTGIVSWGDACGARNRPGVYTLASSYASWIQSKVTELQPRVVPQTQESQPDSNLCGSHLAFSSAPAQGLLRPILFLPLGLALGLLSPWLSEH

Binder | % cells in lower right quadrant (PSS8 expressed on cells) [%] | % cells in lower right quadrant [1] [%] | % cells in lower right quadrant (BR3 expressed on cells) [%] | % cells in lower right quadrant [2] [%] | % cells in lower right quadrant [3] [%] | % cells in lower right quadrant [4] [%] | % cells in lower right quadrant [5] [%] | % cells in lower right quadrant [6] [%] | % cells in lower right quadrant [7] [%] | % cells in lower right quadrant [8] [%] | % cells in lower right quadrant [9] [%] | binding result [10] | binding result [11] | binding result [12] | binding result [13] | binding result [14]
B1 | 0.024 | 14.1 | 34.1 | 55.7 | 46.4 | 40.9 | 10.1 | 34 | 29.6 | 0.082 | 10.1 | – | – | – | – | –
B2 | – | – | – | – | – | – | – | – | – | – | – | no binding (tested: 50 µg/ml) | no binding | no binding | no binding | no binding
